Substitutions are numbered along the chain they refer to. Numbers in names are those of the source.

This note sets out measurements from PMC8635976, “Ca^2+/CaM binding to CaMKI promotes IMA-3 importin binding and nuclear translocation in sensory neurons to control behavioral adaptation” (eLife, 2021).

Details in all cases: both partners purified
Assay [1] concerns the target T1, IMA-3-His6 (IMA-3 importin-α) (C. elegans, UniProt Q19969 1-514, labeled using the RED-tris-NTA His tag protein labeling kit).
T1 construct: IMA-3, importin-α of C. elegans; also called HisTag::IMA-3; source: E. coli BL21 (DE3), purified (Ni-NTA, desalting spin column)
T1 sequence (looked up): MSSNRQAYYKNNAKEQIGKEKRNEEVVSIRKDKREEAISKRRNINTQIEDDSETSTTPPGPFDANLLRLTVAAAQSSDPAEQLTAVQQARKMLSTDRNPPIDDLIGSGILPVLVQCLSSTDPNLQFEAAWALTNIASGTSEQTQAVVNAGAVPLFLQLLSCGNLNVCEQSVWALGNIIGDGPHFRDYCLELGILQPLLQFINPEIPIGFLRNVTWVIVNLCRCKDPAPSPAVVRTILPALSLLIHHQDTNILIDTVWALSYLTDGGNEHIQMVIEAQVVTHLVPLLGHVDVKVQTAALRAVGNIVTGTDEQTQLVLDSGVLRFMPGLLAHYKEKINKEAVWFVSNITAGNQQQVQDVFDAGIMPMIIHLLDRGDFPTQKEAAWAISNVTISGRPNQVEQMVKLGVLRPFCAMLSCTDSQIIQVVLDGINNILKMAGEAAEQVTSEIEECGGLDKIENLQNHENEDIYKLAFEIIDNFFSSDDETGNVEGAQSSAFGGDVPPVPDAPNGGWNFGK
The experiment in a line: MST; Monolith NT.115; RED-tris-NTA labeled IMA-3-His6 at 100 nM, serial dilution of unlabeled CMK-1 in 1x PBS with 0.05% Tween 20; 40% laser power; with 2 mM CaCl2 and 8 µM CaM; triplicates.

Assay [2] has as its target T1, IMA-3-His6 (IMA-3 importin-α). Description: MST; Monolith NT.115; RED-tris-NTA labeled IMA-3-His6 at 100 nM, serial dilution of unlabeled CMK-1 in 1x PBS with 0.05% Tween 20; 40% laser power; no Ca2+, no CaM; triplicates.
Assay [3] shares this target. The experiment in a line: MST; Monolith NT.115; RED-tris-NTA labeled IMA-3-His6 at 100 nM, serial dilution of unlabeled CMK-1 in 1x PBS with 0.05% Tween 20; 40% laser power; with 2 mM Ca2+, no CaM.

B1: CMK-1(wt), calcium/calmodulin-dependent protein kinase-1 (enzyme, C. elegans, UniProt Q9TXJ0 1-348, looked up)
chain: MPLFKRRDGSGPAPNATIREKYDFRDVLGTGAFSKVFLAESKSDAGQMYAVKCIDKKALKGKEESLENEIKVLRKLRHNNIVQLFDTYDEKQFVYLVMELVTGGELFDRIVAKGSYTEQDASNLIRQVLEAVGFMHDNGVVHRDLKPENLLYYNQDEDSKIMISDFGLSKTEDSGVMATACGTPGYVAPEVLQQKPYGKAVDVWSIGVIAYILLCGYPPFYDESDANLFAQIIKGEYEFDAPYWDQISDSAKDFITHLMCCDPEARFTCQDALSHPWISGNTAYTHDIHGTVAVHLKKSLAKRNWKKAYNAAAAIRQLQMLRLSSNSNRLQKQASQQQPEPPTPAFHA
notes: CMK-1 of C. elegans, ortholog of mammalian CaMKI/IV; cmk-1 cds inserted in pDK2409 (plasmid dg922 [cmk-1(wt)::GST-TEV]); TEV cleavage removes the GST tag to recover untagged CMK-1; also called CaMKI; source: E. coli BL21 (DE3), purified (Glutathione beads, eluted by TEV cleavage)
What is called Kd is the free concentration of one partner at which half of the binding sites on the other are occupied at equilibrium, for simple one-to-one binding. For B1, the Kd in assay [1] came out at 0.45 µM; in assay [2], 1.54 µM; in assay [3], 1.14 µM.

B2: CMK-1(K71A/R74Q/R77S) (enzyme, C. elegans, UniProt Q9TXJ0 1-348, looked up)
chain: B1 chain with K71A, R74Q, R77S
notes: CMK-1 of C. elegans with three point mutations in the NLS 71-78; plasmid dg929 [cmk-1(K71A/R74Q/R77S)::GST-TEV] made by site-directed mutagenesis from dg922; TEV cleavage removes the GST tag; also called NLS71-78 mutant CMK-1; CMK-1 (K71A/R74Q/R77S) triple mutant; source: E. coli BL21 (DE3), purified (Glutathione beads, eluted by TEV cleavage)
Regarding B2, the results for the Kd in assay [1] and in assay [2] were 1 µM and 1.22 µM, respectively.
